# Measurements as given in patent CN114736293A.
# Biological target: SARS-CoV-2 S蛋白(spike protein)，展示于假病毒表面 (SARS-CoV-2) (UniProt P0DTC2)
# Experiment: cell-based or functional assay
substance,measurement,value
自组装铁蛋白融合纳米抗体Ferritin-H11-D4(家蚕杆状病毒表达系统表达),IC50(假病毒中和试验),2.19 nM
same,中和活性，相对大肠杆菌表达的铁蛋白融合蛋白的倍数,20 fold
same,对假病毒的中和活性，相对单独表达的纳米抗体H11-D4的倍数,8 fold
